Results from the supplement of paper PMC7125110.
± gives the standard error. For some assays here: Fewer inactive variants are shown than the library holds.

B1: glmS ribozyme (parent)
chain: AUAAAAGCGCCAGAACUACAGAAAUGUAGUUGACGAGGAGGAGGUUUAUCGAAUUUUCGGCGGAUGCCUCCAAA

Columns and labels:
Conditions in all cases: with glucosamine-6-phosphate
glucosamine-6-phosphate [1] = variants of: B1; assay: kcat; higher = faster cleavage; RNA array
Outline: (§1)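 Sequenced MiSeq chips were the platform: E. coli RNA polymerase transcribed barcoded ribozyme variants on them in situ, and a hybridised Cy3 probe tracked these at 37 °C. After glucosamine-6-phosphate (40 μM to 10 mM) in HEPES/KCl/Mg(OAc)2 buffer was flowed in, tiles were imaged over ~14 h. Signals normalised to baseline and to non-cleaving reference variants were reduced to per-tile medians and fit to one- or two-exponential decays to obtain kobs. kcat and KM were derived through weighted Michaelis–Menten fits across concentrations.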

glucosamine-6-phosphate [2] = variants of: B1; assay: KM; higher = weaker cofactor use; RNA array
Outline: as §1

glucosamine-6-phosphate [3] = variants of: B1; assay: self-cleavage kobs at 160 uM GlcN6P; higher = faster cleavage; RNA array
Outline: as §1

glucosamine-6-phosphate [4] = variants of: B1; assay: self-cleavage kobs at 640 uM GlcN6P; higher = faster cleavage; RNA array
Outline: as §1

glucosamine-6-phosphate [5] = variants of: B1; assay: self-cleavage kobs at 2500 uM GlcN6P; higher = faster cleavage; RNA array
Outline: as §1

glucosamine-6-phosphate [6] = variants of: B1; assay: self-cleavage kobs at 10000 uM GlcN6P; higher = faster cleavage; RNA array
Outline: as §1

glucosamine-6-phosphate [7] = variants of: B1; assay: self-cleavage kobs at 40 uM GlcN6P; higher = faster cleavage; RNA array
Outline: as §1

Variant | kcat (glucosamine-6-phosphate [1]) | KM (glucosamine-6-phosphate [2]) | self-cleavage kobs at 160 uM GlcN6P (glucosamine-6-phosphate [3]) | self-cleavage kobs at 640 uM GlcN6P (glucosamine-6-phosphate [4]) | self-cleavage kobs at 2500 uM GlcN6P (glucosamine-6-phosphate [5]) | self-cleavage kobs at 10000 uM GlcN6P (glucosamine-6-phosphate [6]) | self-cleavage kobs at 40 uM GlcN6P (glucosamine-6-phosphate [7])
G13A U54C | 0.000629 ± 0.00013 s⁻¹ | 2490 ± 920 µM | 2.7e-05 ± 1e-05 s⁻¹ | 0.000134 ± 2.4e-05 s⁻¹ | 0.000405 ± 6.2e-05 s⁻¹ | 0.000458 ± 7.1e-05 s⁻¹ | 
G13C A39G | 0.000183 ± 2.5e-05 s⁻¹ | 4230 ± 1300 µM |  |  | 7.1e-05 ± 1.4e-05 s⁻¹ | 0.000128 ± 2e-05 s⁻¹ | 
G13C A39U | 6.85e-05 ± 4.7e-06 s⁻¹ | 4180 ± 820 µM |  |  | 2.64e-05 ± 1e-05 s⁻¹ | 4.82e-05 ± 7.1e-06 s⁻¹ | < 1e-05 s⁻¹
G13U U54G C70G | 4.42e-05 ± 4.5e-06 s⁻¹ |  |  | 5.17e-05 ± 2.4e-05 s⁻¹ | 4.17e-05 ± 1.2e-05 s⁻¹ | 4.21e-05 ± 1.5e-05 s⁻¹ | 
G13U C68U | 0.000114 ± 6.9e-06 s⁻¹ | 1630 ± 310 µM |  | 2.76e-05 ± 8.2e-06 s⁻¹ | 7.37e-05 ± 8.5e-06 s⁻¹ | 9.63e-05 ± 8.5e-06 s⁻¹ | 
G13C C58A C61U C70G | 1.31e-05 ± 2.2e-06 s⁻¹ |  |  |  |  |  | 
G13A U65A | 0.000116 ± 3.9e-05 s⁻¹ |  |  |  | 2.1e-05 ± 9.1e-06 s⁻¹ | 5.81e-05 ± 8.7e-06 s⁻¹ | < 1e-05 s⁻¹
G13A U30C | 0.000676 ± 0.00014 s⁻¹ | 2010 ± 830 µM |  | 0.000158 ± 3.2e-05 s⁻¹ | 0.000511 ± 9.2e-05 s⁻¹ | 0.00051 ± 9.1e-05 s⁻¹ | 
G13A U30A | 0.000292 ± 4.6e-05 s⁻¹ | 3630 ± 960 µM | < 1e-05 s⁻¹ | 3.94e-05 ± 1.3e-05 s⁻¹ | 0.000128 ± 2.3e-05 s⁻¹ | 0.000202 ± 5.4e-05 s⁻¹ | 
A14C A36C | < 1e-05 s⁻¹ |  | < 1e-05 s⁻¹ |  |  |  | < 1e-05 s⁻¹
G13U C34U | < 1e-05 s⁻¹ |  |  |  | < 1e-05 s⁻¹ |  | < 1e-05 s⁻¹
G13U G32U | 0.00043 ± 2.8e-05 s⁻¹ | 3420 ± 370 µM | 2.69e-05 ± 1.1e-05 s⁻¹ | 6.64e-05 ± 8.3e-06 s⁻¹ | 0.000182 ± 3.1e-05 s⁻¹ | 0.000321 ± 3.4e-05 s⁻¹ | 
G13C G41U | 3.06e-05 ± 9.2e-06 s⁻¹ |  |  |  |  |  | 
G13U G37U | < 1e-05 s⁻¹ |  |  | < 1e-05 s⁻¹ |  | < 1e-05 s⁻¹ | 
G13U G40U | 7.77e-05 ± 1.2e-05 s⁻¹ |  |  | 3.55e-05 ± 9.5e-06 s⁻¹ | 8.94e-05 ± 1.4e-05 s⁻¹ | 6.79e-05 ± 8.5e-06 s⁻¹ | 
G13U G40C | 8.27e-05 ± 6.4e-06 s⁻¹ | 994 ± 460 µM |  |  | 4.94e-05 ± 1.9e-05 s⁻¹ | 7.64e-05 ± 9.8e-06 s⁻¹ | 
G13C U31G | 0.000196 ± 4.5e-06 s⁻¹ | 1560 ± 90 µM |  | 5.79e-05 ± 1.2e-05 s⁻¹ | 0.000119 ± 1.8e-05 s⁻¹ | 0.00017 ± 2.2e-05 s⁻¹ | 
G13C G32U | 0.000576 ± 4.2e-05 s⁻¹ | 3170 ± 470 µM |  | 8.34e-05 ± 4.1e-05 s⁻¹ | 0.000258 ± 5.7e-05 s⁻¹ | 0.000436 ± 7.7e-05 s⁻¹ | 
